According to the RNAGym collection of RNA variant scans (doi:10.7554/elife.90254):

B1: OR4K15 (parent)
chain: GUUAACGGUCAUAGGCCAUGGAAACUAGGAGCACCAUUUCGCUGCCAGUGAAGAAAUGAACAAAGAAAAUCUGGGCCAGGCAGGCAUCAAAAGAAAUAGUCUUGCGCUCAACCAGAAAGUCUGUAAUCAUUUUAAGGGUA

Variants of: B1
Assay: self-cleavage, relative activity (ratio to wild type); higher = more cleavage; in vitro, sequencing; the parent is a self-cleaving ribozyme

Variant	self-cleavage
G29A A66G	1.59
A27G A125G	0.26
A27G A125U	1.41
G28A A91G	1.19
A27G A52G	1.44
A27G A129G	1.06
A27U A90G	0.74
G28A C88U	2.33
G29A A47G	0.87
A27U U38C	1.83
A27G U139C	1.05
U26C U49C	1.41
G28A U120C	1.28
G28U A135C	2.26
A27U A134G	1.3
G29A A134G	0.51
U26C A114G	0.04
U26C U37C	0.95
G28A U70A	1.02
A27C A78C	0.25
U26C U39C	1.63
A27G U132C	0.79
U26C C76U	0.09
A27G G50A	2.45

Variant	self-cleavage
A27G A82G	0.33
A27G A82C	0.1
A27G A110C	0.43
A27G A110G	0.1
U26C A140U	0.35
U26C G44U	1.99
A27U U57C	1.25
U26C A117U	0.5
U26C A117G	1.36
A27U U130C	1.07
A27G U97A	1.24
A27U U70A	1.68
A27U U122C	1.42
A27C A36C	2.11
A27G A91G	1.22
A27G A91C	1.42
U26C U122A	1.87
G29A C34U	1.67
A27G U43C	1.41
U26C U43A	1.29
A27G A118G	0.47
A27G A118U	0.36
U26C A126G	0.72
U26G A36G	1.37

Variant	self-cleavage
G29A A33G	0.88
A27U U132C	1.39
G29A A78C	0.33
G29A A78U	0.14
U26C U132C	0.52
U26C U38C	1.45
A27G A126G	0.8
A27G A36U	0.85
A27U U97C	1.75
G28A A114U	0.18
U26C A94G	0.95
U26C A95G	1.75
A27C A91G	0.64
G28U A89U	2.26
A27U A114U	0.14
A27G A63U	1.83
A27G A47G	0.68
U26G A114U	0.06
A27G U103A	0.45
A27G G44A	1.52
G29A A129G	1.59
G28U A118G	0.84
G28U A118U	0.68
A27G C71A	0.66

Variant	self-cleavage
U26C A118G	2.14
A27G G123U	1.67
U26G U127A	1.82
A27G A33C	1.32
G28U A62G	1.64
A27U U120C	0.85
A27G A89U	2
A27G U108C	0.02
A27G A62G	1.46
A27G A62U	1.15
G28A U108A	0.01
A27G A55G	1.57
A27U U139C	1.56
A27G U37C	1.27
A27G U133C	1.58
A27U A52U	2
U26G	1.33
G29A A96U	1.27
G28A A33G	0.69
A27G A54G	1.37
A27G A98G	0.77
U26C U87A	1.6
A27G A92C	1.36
G28A A55G	1.7

Variant	self-cleavage
A27U	0.91
A27G	1.1
A27C	1.21
A27G U57C	0.49
U26C U57C	1.44
G29A A86G	1.65
A27U A59U	1.64
A27G A78U	0.34
A27G U70C	0.56
A27G A116U	0.05
A27G U100C	1.8
G29A A92U	1.86
G29A A92G	1.16
A27G A140G	1
A27U G44U	2.13
A27U G115A	0.07
A27G A114U	0.16
G28A U102C	0.81
G29A	1.82
G28A U124C	0.6
A27G U124C	0.9
G28U A69G	1.57
U26C U131A	1.02
A27G A95C	0.48

Variant	self-cleavage
G28A A140G	2
A27G A135G	0.84
A27U A54G	1.64
A27G A96G	1.1
A27G A117G	1.15
A27G A117U	0.53
A27C A135U	2.25
A27U A56G	1.21
G28A A52U	1.15
A27G A30U	1.61
A27G A30C	1.14
U26C A135U	0.57
U26C A91G	1.26
U26C G93U	0.86
U26C U70A	0.63
U26C U70C	0.38
A27G A68U	1.1
A27G A66C	1.24
A27G C105A	0.04
A27G A67U	2.19
G29A A67G	1.29
U26C A111G	0.03
A27G U102C	1.06
U26C U127C	0.85

Variant	self-cleavage
A27G A111U	0.04
A27G U131G	1.09
G28A A64G	1.4
U26C A96U	1.89
G28U A52G	1.37
A27U A64G	1.58
U26C G58U	1.48
U26C U124C	1.05
A27U G79U	0.09
A27G A90G	1.41
G28C U130C	0.64
A27G A56G	1.57
A27G A59U	1.24
A27G A59G	1.03
G28U A30G	1.48
A27U A62G	1.61
U26C U72C	0.07
U26C U72A	0.33
U26C A116U	0.18
A27G G104A	0.02
A27U U37C	1.42
U26G A89C	1.29
A27U C61U	0.58
